Test results reported in US20210388118A1 (ZHEJIANG SHIMAI PHARMACEUTICAL, published 2021).

B1: SMET5 Fab (Fab, V domains shown)
VH: EVQLVETGGGVVQPGRSLRLSCAASGFTFSSYAMHWVRQAPGKGLEWVAVISYDGSNKYYADSVKGRFTISRDNSKNTLYLQMNSLRAEDTAVYYCARGYVARGDFDYWGQGTLVTVSS
VL: DIQMTQSPSTLSASVGDRVTITCRASQTVDSWLAWYQQKPGKAPKLLIYATSSLQSGVPSRFSGSGSGTDFTLTISSLQPEDFATYYCQQGHIAPHTFGQGTTLEIK
notes: Human Fab from a phage library, expressed in E. coli, His-tagged and detected by anti-FLAG; also called SMETS
B2: SMET5.2 IgG1 (antibody, V domains shown)
VH: B1 VH
VL: DVVMTQSPSTLSASVGDRVTITCRASQSMSRWLAWYQQKPGKGPKLLIYATSTLQSGVPSRFSGSGSGTEFTLTISSLQPEDFATYYCQQLDSFPFSFTFGPGTKVDLKR
notes: Human IgG1 from 293FS cells
B3: SMET5.3 Fab (Fab, V domains shown)
VH: B1 VH
VL: DIQLTQSPSTLSASVGDRVTITCRSNQTADSWLAWYQQKPGKAPNLLIYAASNLQSGVPSRFSGSGSGTDFTLTISSLQPEDFATYYCQQSYSTPFMFTFGQGTKLEIK
notes: His-tagged Fab
B4: SMET5.3 IgG1 (antibody, V domains shown)
VH: B1 VH
VL: DIQLTQSPSTLSASVGDRVTITCRSNQTADSWLAWYQQKPGKAPNLLIYAASNLQSGVPSRFSGSGSGTDFTLTISSLQPEDFATYYCQQSYSTPFMFTFGQGTKLEIKR
notes: Human IgG1 from 293FS cells
B5: SMET5 IgG1 (antibody, V domains shown)
VH: B1 VH
VL: DIQMTQSPSTLSASVGDRVTITCRASQTVDSWLAWYQQKPGKAPKLLIYATSSLQSGVPSRFSGSGSGTDFTLTISSLQPEDFATYYCQQGHIAPHTFGQGTTLEIKR
notes: Human IgG1 from 293FS cells; also called SMETS IgG1
B6: SMET5.4 Fab (Fab, V domains shown)
VH: B1 VH
VL: DIQLTQSPSSVSASVGDRVTITCRASQGISSWLAWYQQKPGKAPKLLIYAASALQSGVPSRFSGSGSGTEFTLTIYDLQPDDFATYFCQQYDTFLWTFGQGTKVEIK
notes: His-tagged Fab

Key:
recombinant human EGFR [1] = target: T1, recombinant human EGFR (human, UniProt P00533 25-645); assay: ELISA, recombinant human EGFR coated, Fab
T1 construct: Bought protein; construct not described; also called hEGFR
Protocol: (§1) ELISA was performed according to standard protocols. Briefly, recombinant human or cynomolgus EGFR was coated on Corning EIA/RIA high-binding 96-well plates (Corning Inc.) at 50 ng per well overnight at 4° C. and blocked with 3% nonfat milk in PBS (pH7.4). Fivefold serially diluted antibodies were added and incubated at room temperature for 2 hours. The plates were washed with PBS containing 0.05% Tween 20. Bound Fab and IgG1s were detected by HRP-conjugated anti-FLAG tag antibody and HRP-conjugated anti-human IgG (Fc-specific) antibody, respectively. The assay was developed at room temperature with TMB substrate (Sigma-Aldrich) and monitored at 450 nm with a microplate reader. The half-maximal binding (EC₅₀) was calculated by fitting the data to the Langmuir adsorption isotherm.

[2] = target: T2, human EGFR on cells (HCT116, A549, A431, HT29) (human, UniProt P00533 25-1210); assay: flow cytometry on A549 cells, Fab at 100 nM
T2 construct: whole, on cells; also called cell surface EGFR; cell-surface EGFR
Protocol: To measure the binding of SMET5 Fab to cell surface EGFR, about 5×10⁵ cells were incubated with 100 nM antibody on ice for 1 h. The cells were washed once with PBS containing 0.1% bovine serum albumin (PBSA) and resuspended in 200 μl PBSA. Then 5 μl anti-His-PE conjugate was added and incubated for 30 min. The cells were washed once with PBSA and then used for flow cytometry analysis.

recombinant human EGFR [3] = target: T1, recombinant human EGFR; assay: ELISA, recombinant human EGFR coated
Protocol: as §1

[4] = target: T3, recombinant cynomolgus EGFR (cynomolgus, UniProt A0A2K5WK39 25-645); assay: ELISA, recombinant cynomolgus EGFR coated
T3 construct: Bought protein; construct not described
Protocol: as §1

[5] = target: T2, human EGFR on cells (HCT116, A549, …); assay: flow cytometry on A549 cells, 2 µg/mL
Protocol: To measure the binding of IgG1 s of SMET5 variants to cell surface EGFR, about 5×10⁵ cells were incubated with 2 μg mL⁻¹ antibodies on ice for 1 h. The cells were washed once with PBSA and resuspended in 200 μl PBSA. Then 5 μ1 goat F(ab′)2 anti-human IgG (γ)-FITC conjugate was added and incubated for 30 min. The cells were washed once with PBSA and then used for flow cytometry analysis.

recombinant human EGFR [6] = target: T1, recombinant human EGFR; assay: ELISA, recombinant EGFR coated
Protocol: as §1

Binder | binding result (recombinant human EGFR [1]) | binding result [5] | binding result (recombinant human EGFR [6]) | other results
B1 | binds | – | – | binding result [2]: binds
B2 | – | – | – | EC50 (recombinant human EGFR [3]): 1.4 nM; EC50 [4]: 0.76 nM
B3 | binds | – | – | –
B4 | – | binds | binds | –
B5 | – | binds | binds | –
B6 | binds | – | – | –
